The nature of the series: self-splicing fitness, log relative to wild type (ln ratio); higher = more splicing; Tetrahymena group I intron in knt gene, E. coli kanamycin selection, DiMSum; sequences stand for … in CUCUCU…GGAGGGAAAAGUUAUCAGGCAUGCACCUGGUAGCUAGUCUUUAAACCAAUAGAUUGCAUCGGUUUAAAAGGCAAGACCGUCAAAUUGCGGGAAAGGGGUCAACAGCCGUUCAGUACCAAGUCUCAGGGGAAACUUUGAGAUGGCCUUGCAAAGGGUAUGGUAAUAAGCUGACGGACAUGGUCCUAACCACGCAGCCAAGUCCUAAGUCAACAGAUCUUCUGUUGAUAUGGAUGCAGUUCACAGACUAAAUGUCGGUCGGGGAAGAUGUAUUCUUCUCAUAAGAUAUAGUCGGACCUCUCCUUAAUGGGAGCUAGCGGAUGAAGUGAUGCAACACUGGAGCCGCUGGGAACUAAUUUGUAUGCGAAAGUAUAUUGAUUAGUUUUGGAGUACUCGUGGUCG
In a few lines: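 Fitness was computed with DiMSum as the error-weighted combination of replicate fold changes, kanamycin versus none, each normalised to wild type. The library randomised all eight intron nucleotides of the P1ex region, with the intron placed in the knt kanamycin-resistance gene on pET-22b(+) in E. coli BL21(DE3). Six replicate transformations were grown overnight at 37°C or 30°C on LB agar with or without 25 μg/mL kanamycin, plus 100 μg/mL carbenicillin, 50 μM IPTG and 0.2% rhamnose. Pooled colonies were amplicon-sequenced on an Illumina HiSeq 2500.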

± gives the uncertainty stated by the source.

The values that follow come from the supplement of paper PMC7877785.

In the case of CAGGAGCAAUAUUACGCAAA, the “self-splicing fitness (ln)” value (30 °C) is -4.2 ± 0.46.
Regarding CAGGAGCAAUAUUACGCAAG, the “self-splicing fitness (ln)” value by setting is: (30 °C) -2.98 ± 0.35; (37 °C) -1.06 ± 0.27.
With CAGGAGCAAUAUUACGCGAA, the “self-splicing fitness (ln)” value (30 °C) is -1.4 ± 0.17 and the “self-splicing fitness (ln)” value (37 °C) is -2.07 ± 0.23.
On to CAGGAGCAAUAUUACGCGAU, for which the “self-splicing fitness (ln)” value (30 °C) is -3.06 ± 0.28.
On to CAGGAGCAAUAUUACGCGUC, for which the “self-splicing fitness (ln)” value is, setting by setting: (30 °C) -4.22 ± 0.36; (37 °C) -3.04 ± 0.4.
The corresponding values for CAGGAGCAAUAUUACGCUAG are -1.28 ± 0.23 and -1.1 ± 0.27.
On the same counts, the results for CAGGAGCAAUAUUACGCUGG are -1.96 ± 0.26 and -0.934 ± 0.24.
Take CAGGAGCAAUAUUACGCUGU: the “self-splicing fitness (ln)” value was -3.13 ± 0.43 (30 °C) and -2.65 ± 0.44 (37 °C).
Turning to CAGGAGCAAUAUUACGGAAC, the “self-splicing fitness (ln)” value (30 °C) is -3.67 ± 0.43.
On to CAGGAGCAAUAUUACGGAGA, for which the “self-splicing fitness (ln)” value reads like this: (30 °C) -2.81 ± 0.28; (37 °C) -2.34 ± 0.37.
As to CAGGAGCAAUAUUACGGGCA, the “self-splicing fitness (ln)” value (30 °C) is -2.48 ± 0.15 and the “self-splicing fitness (ln)” value (37 °C) is -2.35 ± 0.22.
The corresponding values for CAGGAGCAAUAUUACGGUCU are -3.85 ± 0.22 and -2.84 ± 0.17.
The corresponding values for CAGGAGCAAUAUUACGUACG are -1.06 ± 0.088 and 0.312 ± 0.13.
The corresponding values for CAGGAGCAAUAUUACGUAGG are -0.929 ± 0.1 and 0.172 ± 0.11.
Take CAGGAGCAAUAUUACGUAUG: the “self-splicing fitness (ln)” value reads like this: (30 °C) -2.27 ± 0.082; (37 °C) -1.5 ± 0.11.
On the same counts, the results for CAGGAGCAAUAUUACGUGGG are -2.85 ± 0.18 and -2.31 ± 0.15.
On the same counts, the results for CAGGAGCAAUAUUACGUGUU are -3.24 ± 0.17 and -2.55 ± 0.27.
The corresponding values for CAGGAGCAAUAUUACGUUGU are -3.34 ± 0.17 and -2.26 ± 0.19.
As to CAGUAGCAAUAUUACGAAGC, the “self-splicing fitness (ln)” value (37 °C) was -3.05 ± 0.32.
In the case of CAGUAGCAAUAUUACGACCA, the “self-splicing fitness (ln)” value by setting is: (30 °C) -0.792 ± 0.28; (37 °C) -0.375 ± 0.27.
CAGUAGCAAUAUUACGAGAC: the “self-splicing fitness (ln)” value runs as follows: (30 °C) -3.08 ± 0.24; (37 °C) -1.31 ± 0.28.
On the same counts, the results for CAGUAGCAAUAUUACGAUGC are -3.51 ± 0.28 and -2.67 ± 0.3.
On the same counts, the results for CAGUAGCAAUAUUACGCAGC are -3.05 ± 0.34 and -1.3 ± 0.33.
With CAGUAGCAAUAUUACGCCGA, the “self-splicing fitness (ln)” value is, setting by setting: (30 °C) -3.13 ± 0.35; (37 °C) -0.00684 ± 0.18.
For the sequence CAGUAGCAAUAUUACGCCUU, the “self-splicing fitness (ln)” value (30 °C) was -1.35 ± 0.4.
CAGUAGCAAUAUUACGCGAC: the “self-splicing fitness (ln)” value (37 °C) was -1 ± 0.32.
As for CAGUAGCAAUAUUACGCGAU, the “self-splicing fitness (ln)” value was -2.39 ± 0.28 (30 °C) and -2.67 ± 0.34 (37 °C).
As to CAGUAGCAAUAUUACGCGCU, the “self-splicing fitness (ln)” value by setting is: (30 °C) -1.56 ± 0.26; (37 °C) -1.28 ± 0.27.
CAGUAGCAAUAUUACGCUUU: the “self-splicing fitness (ln)” value is, setting by setting: (30 °C) -4.27 ± 0.24; (37 °C) -1.93 ± 0.17.
The corresponding values for CAGUAGCAAUAUUACGGCAC are -2.42 ± 0.21 and -2.06 ± 0.25.
On the same counts, the results for CAGUAGCAAUAUUACGGCGA are -2.45 ± 0.26 and -1.9 ± 0.29.
On to CAGUAGCAAUAUUACGGCUG, for which the “self-splicing fitness (ln)” value is, setting by setting: (30 °C) -3.85 ± 0.47; (37 °C) -2.37 ± 0.34.
The corresponding values for CAGUAGCAAUAUUACGGGGA are -3.9 ± 0.4 and -2.23 ± 0.21.
Consider CAGUAGCAAUAUUACGGUGC, for which the “self-splicing fitness (ln)” value by setting is: (30 °C) -3.8 ± 0.28; (37 °C) -3.2 ± 0.31.
On the same counts, the results for CAGUAGCAAUAUUACGGUGU are -3.63 ± 0.3 and -0.678 ± 0.15.
On the same counts, the results for CAGUAGCAAUAUUACGUACA are -1.46 ± 0.14 and -1.83 ± 0.16.
With CAGUAGCAAUAUUACGUCCC, the “self-splicing fitness (ln)” value (37 °C) was -1.76 ± 0.4.
In the case of CAUAAGCAAUAUUACGAACG, the “self-splicing fitness (ln)” value reads like this: (30 °C) -0.246 ± 0.074; (37 °C) -0.0693 ± 0.087.
On to CAUAAGCAAUAUUACGAUAC, for which the “self-splicing fitness (ln)” value (37 °C) was -2.28 ± 0.34.
Consider CAUAAGCAAUAUUACGAUCG, for which the “self-splicing fitness (ln)” value is -0.428 ± 0.1 (30 °C) and -0.532 ± 0.11 (37 °C).
On the same counts, the results for CAUAAGCAAUAUUACGAUGC are -3.14 ± 0.19 and -2.34 ± 0.28.
The corresponding values for CAUAAGCAAUAUUACGAUGU are -3.66 ± 0.14 and -2.3 ± 0.14.
CAUAAGCAAUAUUACGAUUC: the “self-splicing fitness (ln)” value is, setting by setting: (30 °C) -3.25 ± 0.2; (37 °C) -3.11 ± 0.26.
On the same counts, the results for CAUAAGCAAUAUUACGCAAG are -2.14 ± 0.11 and -0.944 ± 0.13.
On the same counts, the results for CAUAAGCAAUAUUACGCGCU are -3.52 ± 0.28 and -2.34 ± 0.2.
On the same counts, the results for CAUAAGCAAUAUUACGCGGA are -3.61 ± 0.24 and -1.68 ± 0.16.
Regarding CAUAAGCAAUAUUACGCUCA, the “self-splicing fitness (ln)” value by setting is: (30 °C) -1.25 ± 0.088; (37 °C) -1.18 ± 0.11.
The corresponding values for CAUAAGCAAUAUUACGGCAC are -2.85 ± 0.22 and -2.59 ± 0.21.
Consider CAUAAGCAAUAUUACGGGAG, for which the “self-splicing fitness (ln)” value (30 °C) was -1.96 ± 0.097 and the “self-splicing fitness (ln)” value (37 °C) is -1.14 ± 0.095.
The corresponding values for CAUAAGCAAUAUUACGGGUG are -2.3 ± 0.08 and -1.17 ± 0.078.
The corresponding values for CAUAAGCAAUAUUACGGUGA are -3.65 ± 0.27 and -2.36 ± 0.23.
On the same counts, the results for CAUAAGCAAUAUUACGUAAC are -3.03 ± 0.23 and -2.1 ± 0.26.
Consider CAUAAGCAAUAUUACGUAGC, for which the “self-splicing fitness (ln)” value was -3.15 ± 0.17 (30 °C) and -2.96 ± 0.2 (37 °C).
On the same counts, the results for CAUAAGCAAUAUUACGUCGC are -4.06 ± 0.18 and -3.2 ± 0.17.
On the same counts, the results for CAUAAGCAAUAUUACGUGCG are -1.15 ± 0.079 and -0.792 ± 0.098.
On the same counts, the results for CAUAAGCAAUAUUACGUGGA are -3.5 ± 0.22 and -2.53 ± 0.21.
Regarding CAUAAGCAAUAUUACGUUGG, the “self-splicing fitness (ln)” value runs as follows: (30 °C) -2.6 ± 0.095; (37 °C) -1.26 ± 0.094.
On the same counts, the results for CAUAAGCAAUAUUACGUUGU are -3.55 ± 0.15 and -2.98 ± 0.18.
In the case of CAUCAGCAAUAUUACGAUCC, the “self-splicing fitness (ln)” value reads like this: (30 °C) -1.56 ± 0.12; (37 °C) -0.817 ± 0.16.
The corresponding values for CAUCAGCAAUAUUACGCACA are -0.992 ± 0.098 and -1.21 ± 0.11.
With CAUCAGCAAUAUUACGCCCG, the “self-splicing fitness (ln)” value was -0.306 ± 0.12 (30 °C) and 0.0609 ± 0.15 (37 °C).
On the same counts, the results for CAUCAGCAAUAUUACGCCGU are -2.51 ± 0.11 and -1.13 ± 0.15.
On the same counts, the results for CAUCAGCAAUAUUACGCGAA are -3.13 ± 0.14 and -1.93 ± 0.12.
On the same counts, the results for CAUCAGCAAUAUUACGCGCA are -1.21 ± 0.1 and -0.493 ± 0.12.
In the case of CAUCAGCAAUAUUACGCGGC, the “self-splicing fitness (ln)” value was -3.39 ± 0.2 (30 °C) and -2.8 ± 0.29 (37 °C).
On the same counts, the results for CAUCAGCAAUAUUACGCUAG are -0.614 ± 0.075 and -0.102 ± 0.093.
On the same counts, the results for CAUCAGCAAUAUUACGGAGC are -3.44 ± 0.31 and -2.1 ± 0.31.
On the same counts, the results for CAUCAGCAAUAUUACGGCGA are -3.11 ± 0.28 and -1.27 ± 0.15.
Regarding CAUCAGCAAUAUUACGGCUA, the “self-splicing fitness (ln)” value was -2.82 ± 0.2 (30 °C) and -1.44 ± 0.16 (37 °C).
The corresponding values for CAUCAGCAAUAUUACGGGGA are -2.59 ± 0.14 and -1.22 ± 0.12.
On the same counts, the results for CAUCAGCAAUAUUACGUACC are -2.74 ± 0.3 and -1.63 ± 0.28.
As for CAUCAGCAAUAUUACGUAGC, the “self-splicing fitness (ln)” value was -3.39 ± 0.21 (30 °C) and -1.98 ± 0.19 (37 °C).
The corresponding values for CAUCAGCAAUAUUACGUCUA are -2.35 ± 0.095 and -1.58 ± 0.08.
On the same counts, the results for CAUCAGCAAUAUUACGUGCC are -2.97 ± 0.16 and -2.47 ± 0.24.
On the same counts, the results for CAUCAGCAAUAUUACGUUCG are 0.13 ± 0.046 and -0.286 ± 0.063.
Consider CAUCAGCAAUAUUACGUUGA, for which the “self-splicing fitness (ln)” value reads like this: (30 °C) -3 ± 0.15; (37 °C) -3.46 ± 0.24.
The corresponding values for CAUGAGCAAUAUUACGAAAU are -2.72 ± 0.3 and -3.25 ± 0.43.
